# Laboratory results from US20120172295A1 (INDIANA UNIVERSITY RESEARCH AND TECHNOLOGY, published 2012).
# Starred links: 1 amine or outer side, 2 acyl side, 3 side chain; linkers in the order of their positions; H or OH if unused. Non-standard residues stand in square brackets, D forms with d. Groups on a side chain read outwards from the residue. No end group written: not given here. *: point of attachment. γGlu = O=C(O)[C@H](CCC(=O)[*:2])N[*:1]; Palmitoyl = CCCCCCCCCCCCCCCC(=O)*; Aib = CC(C)(N)C(=O)O; βAla = NCCC(=O)O
# B1: Peptide 83 (SEQ ID NO: 565) (peptide)
# peptide: H[Aib]QGTFTSDK([γGlu-γGlu-Palmitoyl])SKYLD[Aib]RRAQDFVQWLMNT-NH2
# modifications: N-terminus assumed
# SMILES: CCCCCCCCCCCCCCCC(=O)N[C@@H](CCC(=O)N[C@@H](CCC(=O)NCCCC[C@H](NC(=O)[C@H](CC(=O)O)NC(=O)[C@H](CO)NC(=O)[C@@H](NC(=O)[C@H](Cc1ccccc1)NC(=O)[C@@H](NC(=O)CNC(=O)[C@H](CCC(N)=O)NC(=O)C(C)(C)NC(=O)[C@@H](N)Cc1c[nH]cn1)[C@@H](C)O)[C@@H](C)O)C(=O)N[C@@H](CO)C(=O)N[C@@H](CCCCN)C(=O)N[C@@H](Cc1ccc(O)cc1)C(=O)N[C@@H](CC(C)C)C(=O)N[C@@H](CC(=O)O)C(=O)NC(C)(C)C(=O)N[C@@H](CCCNC(=N)N)C(=O)N[C@@H](CCCNC(=N)N)C(=O)N[C@@H](C)C(=O)N[C@@H](CCC(N)=O)C(=O)N[C@@H](CC(=O)O)C(=O)N[C@@H](Cc1ccccc1)C(=O)N[C@H](C(=O)N[C@@H](CCC(N)=O)C(=O)N[C@@H](Cc1c[nH]c2ccccc12)C(=O)N[C@@H](CC(C)C)C(=O)N[C@@H](CCSC)C(=O)N[C@@H](CC(N)=O)C(=O)N[C@H](C(N)=O)[C@@H](C)O)C(C)C)C(=O)O)C(=O)O
# B2: Peptide 26 (SEQ ID NO: 637) (peptide)
# peptide: H[Aib]QGTFTSDYSKYLD[Aib]RRAQDFVQWLMNT-NH2
# modifications: N-terminus assumed
# SMILES: CSCC[C@H](NC(=O)[C@H](CC(C)C)NC(=O)[C@H](Cc1c[nH]c2ccccc12)NC(=O)[C@H](CCC(N)=O)NC(=O)[C@@H](NC(=O)[C@H](Cc1ccccc1)NC(=O)[C@H](CC(=O)O)NC(=O)[C@H](CCC(N)=O)NC(=O)[C@H](C)NC(=O)[C@H](CCCNC(=N)N)NC(=O)[C@H](CCCNC(=N)N)NC(=O)C(C)(C)NC(=O)[C@H](CC(=O)O)NC(=O)[C@H](CC(C)C)NC(=O)[C@H](Cc1ccc(O)cc1)NC(=O)[C@H](CCCCN)NC(=O)[C@H](CO)NC(=O)[C@H](Cc1ccc(O)cc1)NC(=O)[C@H](CC(=O)O)NC(=O)[C@H](CO)NC(=O)[C@@H](NC(=O)[C@H](Cc1ccccc1)NC(=O)[C@@H](NC(=O)CNC(=O)[C@H](CCC(N)=O)NC(=O)C(C)(C)NC(=O)[C@@H](N)Cc1c[nH]cn1)[C@@H](C)O)[C@@H](C)O)C(C)C)C(=O)N[C@@H](CC(N)=O)C(=O)N[C@H](C(N)=O)[C@@H](C)O
# Molecular target: T1, GLP-1 receptor (UniProt P43220 24-463, limits assumed)
# Assay: cell-based or functional assay
Binder,EC50 [pM],Relative Potency (%)
HAEGTFTSDVSSYLEGQAAKEFIAWLVKGG-NH2 [GLP-1-VKGG30 (SEQ ID NO: 527)],25,100
HSQGTFTSDYSKYLDERRAKDFVQWLMDGGPSSGAPPPS-NH2 [E16K20-MDGG30 PSSGAPPPS (SEQ ID NO: 526)],20,
HSQGTFTSDYSKYLDSRRAQDFVQWLMNGGPSSGAPPPS-NH2 [MNGG30 PSSGAPPPS (SEQ ID NO: 522)],310,8

# Molecular target: T1, GLP-1 receptor
# Assay: cell-based or functional assay
# Remark: another data set of the same source
row,Binder,EC50 [pM]
1,B1,43
2,H[Aib]QGTFTSDK([Leu-Leu-Palmitoyl])SKYLD[Aib]RRAQDFVQWLMNT-NH2 [Peptide 86 (SEQ ID NO: 568)],6
3,H[Aib]QGTFTSDK([Ala-Ala-Palmitoyl])SKYLD[Aib]RRAQDFVQWLMNT-NH2 [Peptide 82 (SEQ ID NO: 564)],108
4,H[Aib]QGTFTSDK([βAla-βAla-Palmitoyl])SKYLD[Aib]RRAQDFVQWLMNT-NH2 [Peptide 84 (SEQ ID NO: 566)],4
5,B2,475

# Molecular target: glucagon receptor (UniProt P47871 26-477, limits assumed)
# Assay: cell-based or functional assay
# glucagon receptor, sequence (P47871 26-477 limits assumed): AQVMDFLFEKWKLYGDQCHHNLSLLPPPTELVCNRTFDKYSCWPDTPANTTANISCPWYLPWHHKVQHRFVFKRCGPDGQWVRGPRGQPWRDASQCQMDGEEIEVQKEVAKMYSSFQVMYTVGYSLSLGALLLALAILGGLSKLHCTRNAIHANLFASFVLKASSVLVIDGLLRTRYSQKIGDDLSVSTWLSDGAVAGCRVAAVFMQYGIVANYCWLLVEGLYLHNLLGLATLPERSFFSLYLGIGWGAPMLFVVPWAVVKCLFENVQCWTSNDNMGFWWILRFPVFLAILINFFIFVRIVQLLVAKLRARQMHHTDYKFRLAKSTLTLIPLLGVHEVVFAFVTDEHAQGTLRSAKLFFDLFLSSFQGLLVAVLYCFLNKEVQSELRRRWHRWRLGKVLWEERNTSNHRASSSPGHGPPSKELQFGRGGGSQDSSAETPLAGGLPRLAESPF
row,Binder,EC50 [pM]
1,H[Aib]QGTFTSDK([Ala-Ala-Palmitoyl])SKYLD[Aib]RRAQDFVQWLMNT-NH2 [Peptide 82 (SEQ ID NO: 564)],24
2,H[Aib]QGTFTSDK([Ala-Ala-Palmitoyl])SKYLD[Aib]RRAQDFVC(PEG 40 kDa)WLMNT-NH2 [Peptide 79* (SEQ ID NO: 575)],102
3,B2,653
4,H[Aib]QGTFTSDK([γGlu-γGlu-Palmitoyl])SKYLD[Aib]RRAQDFVC(PEG 40 kDa)WLMNT-NH2 [Peptide 80* (SEQ ID NO: 576)],108
